These results are taken from article PMC4395295.

Test [1] deals with VenusZ435-555 (ZEN-4 neck and coiled coil with the motor domain replaced by Venus) (C. elegans). Briefly: SDS-PAGE and densitometry of the purified complex; band intensities of the ZEN-4 and CYK-4 fragments, staining assumed proportional to molecular weight.
Test [2] addresses ZEN-4 1-585mAG (C. elegans).

Sequence of VenusZ435-555 (ZEN-4 neck and coiled coil with the motor domain replaced by Venus) (C. elegans) (main, as listed by the source): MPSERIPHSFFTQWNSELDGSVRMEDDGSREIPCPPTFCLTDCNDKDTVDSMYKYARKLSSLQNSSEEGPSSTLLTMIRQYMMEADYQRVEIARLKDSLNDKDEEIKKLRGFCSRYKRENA

Take CYK-4 1-120 (domain or fragment): the stoichiometry N (C120 per ZEN-4 fragment) in test [1] turned out to be 0.94. In addition, in test [2], the microtubule gliding velocity of surface-immobilised Z585mAG co-purified with C120 (180 nm/s for Z585mAG alone) came to 30 nm/s.
